B1: rhB7-H6-hFc recombinant protein, wild type [modified: N-linked glycans (removed on the plate by PNGase F in assay a2); N-linked glycans (removed on the plate by PNGase F in assay a2)] [human] / rhNKp30-his protein [human] (parent)
chain 1: LWVSQPPEIRTLEGSSAFLPCSFNASQGRLAIGSVTWFRDEVVPGKEVRNGTPEFRGRLAPLASSRFLHDHQAELHIRDVRGHDASIYVCRVEVLGLGVGTGNGTRLVVEKEHPQLG
chain 2: DLKVEMMAGGTQITPLNDNVTIFCNIFYSQPLNITSMGITWFWKSLTFDKEVKVFEFFGDHQEAFRPGAIVSPWRLKSGDASLRLPGIQLEEAGEYRCEVVVTPLKAQGTVQLEVVASPASRLLLDQVGMKENEDKYMCESSGFYPEAINITWEKQTQKFPHPIEISEDVITGPTIKNMDGTFNVTSCLKLNSSQEDPGTVYQCVVRHASLHTPLRSNFTLTAARHSLSETEKTDNFS
B2: B7-H6, wild type, stably expressed on B7-H6 knockout 293T cells [modified: N-linked glycans at N43, N57, N174, N208, N216 and N242; N-linked glycans at N43, N57, N174, N208, N216 and N242] [human] / rhNKp30-his protein [human] (parent)
chain 1: B1 chain 1
chain 2: DLKVEMMAGGTQITPLNDNVTIFCNIFYSQPLNITSMGITWFWKSLTFDKEVKVFEFFGDHQEAFRPGAIVSPWRLKSGDASLRLPGIQLEEAGEYRCEVVVTPLKAQGTVQLEVVASPASRLLLDQVGMKENEDKYMCESSGFYPEAINITWEKQTQKFPHPIEISEDVITGPTIKNMDGTFNVTSCLKLNSSQEDPGTVYQCVVRHASLHTPLRSNFTLTAARHSLSETEKTDNFSIHWWPISFIGVGLVLLIVLIPWKKICNKSSSAYTPLKCILKHWNSFDTQTLKKEHLIFFCTRAWPSYQLQDGEAWPPEGSVNINTIQQLDVFCRQEGKWSEVPYVQAFFALRDNPDLCQCCRIDPALLTVTSGKSIDDNSTKSEKQTPREHSDAVPDAPILPVSPIWEPPPATTSTTPVLSSQPPTLLLPLQ

The variants in one assay derive from B1. The assay is described as follows: ELISA. To be noted: with rhNKp30-his protein [human]; no PNGase F pretreatment; read at the highest NKp30 conc. tested, 2 (unit not printed in this panel); parent: 1.7; read off a plot. Background: ELISA stands for enzyme-linked immunosorbent assay.
On to chain 2 N33Q, for which the response amounted to 1.5 OD.

Staying with this assay, now noted: with rhNKp30-his protein [human]; pretreated with denatured PNGase F; read at the highest NKp30 conc. tested, 2 (unit not printed in this panel); read off a plot.
With chain 2 N33Q, the response stood at 1.4 OD.

The variants in the next assay derive from B2. The assay is described as follows: flow cytometry on cells. Particulars: with rhNKp30-his protein [human]; 293T cells stably expressing B7-H6, stained with his-tagged NKp30; parent: 1; read off a plot. Background: In flow cytometry, cells or beads pass a laser one at a time.
chain 2 N19Q: the ratio to parent stood at 0.14.

As to chain 2 N184Q, the ratio to parent was determined as 0.22.

Turning to chain 2 N150Q, the ratio to parent was found to be 0.8.

As for chain 2 N33Q, the ratio to parent worked out at 0.57.

chain 2 N218Q: the ratio to parent amounted to 0.86.

For chain 2 N192Q, the ratio to parent came to 0.42.
